The values that follow come from paper PMC13136903, “Zα and Zβ domains of ADAR1 and ZBP1 bind G-quadruplexes with nanomolar affinities, establishing Zβ as a G-quadruplex-specific domain”.

Series [1] deals with GV2 Zα (giant virus Zα domain) (giant virus (metagenome)). As to the kind of experiment: MST. To be noted: 20 mM NaPi pH 6.4, 100 mM KCl, 1 mM DTT, 0.5 mM EDTA (LiCl replaces KCl where noted); ITC 35 C; MST 25 C with 20 nM protein (labelling without DTT; competition …).
For series [2], the target named is T1, ADAR1 Zβ (Homo sapiens, UniProt P55265 291-366).
T1 sequence: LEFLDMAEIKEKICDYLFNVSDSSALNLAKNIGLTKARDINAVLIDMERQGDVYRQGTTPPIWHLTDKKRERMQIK
Briefly: NMR; 100 µM RNA; large CSP increase; 20 mM NaPi pH 6.4, 100 mM KCl, 1 mM DTT, 0.5 mM EDTA (LiCl replaces KCl where noted); ITC 35 C; MST 25 C with 20 nM protein (labelling without DTT); competition. To be noted: protein: recombinant; tags: N-terminal 6xHis, thrombin site, T7 tag.

The target of series [3] is T2, ADAR1 Zα (Homo sapiens, UniProt P55265 139-202).
T2 sequence: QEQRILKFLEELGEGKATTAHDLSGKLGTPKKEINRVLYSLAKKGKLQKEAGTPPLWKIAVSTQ
As to the kind of experiment: NMR; 100 µM RNA; CSPs similar to ssUUAGGG; 20 mM NaPi pH 6.4, 100 mM KCl, 1 mM DTT, 0.5 mM EDTA (LiCl replaces KCl where noted); ITC 35 C; MST 25 C with 20 nM protein (labelling without DTT); competition. The note with it: protein: recombinant; tags: N-terminal 6xHis, thrombin site, T7 tag; chain copies: 2.

In series [4] the target is T2, ADAR1 Zα. Briefly: NMR; extensive peak shifts; 20 mM NaPi pH 6.4, 100 mM KCl, 1 mM DTT, 0.5 mM EDTA (LiCl replaces KCl where noted); ITC 35 C; MST 25 C with 20 nM protein (labelling without DTT); competition. To be noted: protein: recombinant; tags: N-terminal 6xHis, thrombin site, T7 tag; no G4; transient structure.
Series [5] concerns the target T2, ADAR1 Zα. Briefly: MST; 20 mM NaPi pH 6.4, 100 mM KCl, 1 mM DTT, 0.5 mM EDTA (LiCl replaces KCl where noted); ITC 35 C; MST 25 C with 20 nM protein (labelling without DTT); competition. The note with it: protein: recombinant, tags: N-terminal 6xHis, thrombin site, T7 tag.
In series [6] the target is T1, ADAR1 Zβ. The description is as above. To be noted: protein: recombinant; tags: N-terminal 6xHis, thrombin site, T7 tag; parallel G4.
Series [7] has as its target T1, ADAR1 Zβ. As to the kind of experiment: ITC; 35 C; N=1.12; 20 mM NaPi pH 6.4, 100 mM KCl, 1 mM DTT, 0.5 mM EDTA (LiCl replaces KCl where noted); ITC 35 C; MST 25 C with 20 nM protein (labelling without DTT); competition. The note with it: protein: recombinant; tags: N-terminal 6xHis, thrombin site, T7 tag; parallel G4. On the technique in general: ITC needs no label: the signal is the heat of the interaction.

Series [8] has as its target T2, ADAR1 Zα. As to the kind of experiment: ITC; 35 C; N=1.44; 20 mM NaPi pH 6.4, 100 mM KCl, 1 mM DTT, 0.5 mM EDTA (LiCl replaces KCl where noted); ITC 35 C; MST 25 C with 20 nM protein (labelling without DTT); competition. To be noted: protein: recombinant; tags: N-terminal 6xHis, thrombin site, T7 tag; chain copies: 2; parallel G4.
Series [9] addresses T3, ZBP1 Zα1 (Homo sapiens, UniProt Q9H171 1-70).
T3 sequence: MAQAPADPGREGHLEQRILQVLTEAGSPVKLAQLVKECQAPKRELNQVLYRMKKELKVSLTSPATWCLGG
Briefly: NMR; significant peak disappearance; LLPS; 20 mM NaPi pH 6.4, 100 mM KCl, 1 mM DTT, 0.5 mM EDTA (LiCl replaces KCl where noted); ITC 35 C; MST 25 C with 20 nM protein (labelling without DTT); competition. To be noted: protein: recombinant; tags: N-terminal 6xHis, thrombin site, T7 tag; parallel G4.

Series [10] deals with T1, ADAR1 Zβ. As to the kind of experiment: MST; ligand-depletion range, may not be exact; 20 mM NaPi pH 6.4, 100 mM KCl, 1 mM DTT, 0.5 mM EDTA (LiCl replaces KCl where noted); ITC 35 C; MST 25 C with 20 nM protein (labelling without DTT); competition. The note with it: protein: recombinant; tags: N-terminal 6xHis, thrombin site, T7 tag; parallel G4.
For series [11], the target named is T2, ADAR1 Zα. Briefly: NMR; 30 µM RNA; CSPs similar to UUACCG at 100 µM; 20 mM NaPi pH 6.4, 100 mM KCl, 1 mM DTT, 0.5 mM EDTA (LiCl replaces KCl where noted); ITC 35 C; MST 25 C with 20 nM protein (labelling without DTT); competition. The note with it: protein: recombinant; tags: N-terminal 6xHis, thrombin site, T7 tag; predominantly single strand at 30 µM.

For GGGAGGGCGGGAGGG [ALU-GQRNA], in [1], the dissociation constant (Kd) – broadly, a measure of binding affinity in units of concentration – was determined as 1000 nM.

As to UUAGGG (structured_RNA) [GQ-UUAGGG 6-mer (100 µM)], the binding result in series [2] and in series [3] was “binds” each time.

For the molecule CCGACCGCCCGACCG (ssRNA) [ALU-mutRNA], the binding result in series [4] is on record as “binds”.

For UUACCGUUACCGUUACCGUUACCG (ssRNA) [TERRA-mutRNA], the Kd in [5] (no G4, transient structure) amounted to 35.9 ± 8.9 nM.

As for GGGAGGGCGGGAGGG (structured_RNA) [ALU-GQRNA], the Kd in series [5] (chain copies: 2, parallel G4) was 116 ± 69.3 nM; in [6], 336 ± 181 nM; in series [7], 1810 ± 300 nM; in series [8], 430 ± 100 nM. Further, the binding result in series [9] is listed as “binds”.

For the molecule UUAGGGUUAGGGUUAGGGUUAGGG (structured_RNA) [TERRA-GQRNA], the Kd in series [5] (chain copies: 2, parallel G4) came to 19.3 ± 13.7 nM; in [10], 4.2 ± 2.2 nM.

As for UUAGGG (ssRNA) [ssUUAGGG 6-mer (30 µM)], in series [11], the binding result was “binds”.
